Measured values taken from article PMC12162372, “Imaging Cell Surface Plectin in PDAC Patients – A First-In-Human Phase 0 Study Report” (Molecular Imaging and Biology, 2025).
Ends that are not written are not given here.

Experiments:
[1] = human, in vivo
Experimental: (§1) Each patient received a single intravenous 100 µg bolus dose of PTP-01 labeled with 370 MBq ^111In. Whole-body planar scintigraphy was performed at 10 min post-injection, followed by scans at 1, 2, 3, 4, 20, and 50 h. SPECT/CT imaging was performed at 4, 20, and 50 h post-injection using a Siemens Symbia™ T6 dual-head SPECT/CT system with low-energy high-resolution (LEHR) collimators optimized for ^111In imaging. […] Quantitative analysis was conducted at the time using fused SPECT/CT images, and planar imaging remains available for biodistribution assessment. Tumor ROIs were initially defined using fused SPECT/CT images and cross-referenced with planar data for consistency. […] However, attenuation correction was not applied to the SPECT images, as full quantitative SPECT reconstruction was not supported by the scanner at the time. Quantitative analysis (%ID) was derived from planar scintigraphy data using calibration factors from a standard source (syringe) imaged under identical conditions. While SPECT/CT facilitated ROI placement, quantitative measurements were based on planar scintigraphy due to the absence of attenuation-corrected SPECT data. […]
Blood clearance parameters were calculated individually for each patient based on a biexponential fit to blood %ID/g data. […]

CSP = conditions: input parameter applied to all patients in the Krogh cylinder model, no reference given, cited from earlier work
CSP in pancreatic tumors [2] = molecular target: T1, CSP in pancreatic tumors (Homo sapiens, UniProt Q15149); assay: Ex vivo planar scintigraphy of resected tumor and adjacent normal tissue; type: in vivo; set-up: from tissue; host or cells: pancreatic tumours of patients, imaged in vivo and as resected specimens
T1 sequence (Q15149 whole entry): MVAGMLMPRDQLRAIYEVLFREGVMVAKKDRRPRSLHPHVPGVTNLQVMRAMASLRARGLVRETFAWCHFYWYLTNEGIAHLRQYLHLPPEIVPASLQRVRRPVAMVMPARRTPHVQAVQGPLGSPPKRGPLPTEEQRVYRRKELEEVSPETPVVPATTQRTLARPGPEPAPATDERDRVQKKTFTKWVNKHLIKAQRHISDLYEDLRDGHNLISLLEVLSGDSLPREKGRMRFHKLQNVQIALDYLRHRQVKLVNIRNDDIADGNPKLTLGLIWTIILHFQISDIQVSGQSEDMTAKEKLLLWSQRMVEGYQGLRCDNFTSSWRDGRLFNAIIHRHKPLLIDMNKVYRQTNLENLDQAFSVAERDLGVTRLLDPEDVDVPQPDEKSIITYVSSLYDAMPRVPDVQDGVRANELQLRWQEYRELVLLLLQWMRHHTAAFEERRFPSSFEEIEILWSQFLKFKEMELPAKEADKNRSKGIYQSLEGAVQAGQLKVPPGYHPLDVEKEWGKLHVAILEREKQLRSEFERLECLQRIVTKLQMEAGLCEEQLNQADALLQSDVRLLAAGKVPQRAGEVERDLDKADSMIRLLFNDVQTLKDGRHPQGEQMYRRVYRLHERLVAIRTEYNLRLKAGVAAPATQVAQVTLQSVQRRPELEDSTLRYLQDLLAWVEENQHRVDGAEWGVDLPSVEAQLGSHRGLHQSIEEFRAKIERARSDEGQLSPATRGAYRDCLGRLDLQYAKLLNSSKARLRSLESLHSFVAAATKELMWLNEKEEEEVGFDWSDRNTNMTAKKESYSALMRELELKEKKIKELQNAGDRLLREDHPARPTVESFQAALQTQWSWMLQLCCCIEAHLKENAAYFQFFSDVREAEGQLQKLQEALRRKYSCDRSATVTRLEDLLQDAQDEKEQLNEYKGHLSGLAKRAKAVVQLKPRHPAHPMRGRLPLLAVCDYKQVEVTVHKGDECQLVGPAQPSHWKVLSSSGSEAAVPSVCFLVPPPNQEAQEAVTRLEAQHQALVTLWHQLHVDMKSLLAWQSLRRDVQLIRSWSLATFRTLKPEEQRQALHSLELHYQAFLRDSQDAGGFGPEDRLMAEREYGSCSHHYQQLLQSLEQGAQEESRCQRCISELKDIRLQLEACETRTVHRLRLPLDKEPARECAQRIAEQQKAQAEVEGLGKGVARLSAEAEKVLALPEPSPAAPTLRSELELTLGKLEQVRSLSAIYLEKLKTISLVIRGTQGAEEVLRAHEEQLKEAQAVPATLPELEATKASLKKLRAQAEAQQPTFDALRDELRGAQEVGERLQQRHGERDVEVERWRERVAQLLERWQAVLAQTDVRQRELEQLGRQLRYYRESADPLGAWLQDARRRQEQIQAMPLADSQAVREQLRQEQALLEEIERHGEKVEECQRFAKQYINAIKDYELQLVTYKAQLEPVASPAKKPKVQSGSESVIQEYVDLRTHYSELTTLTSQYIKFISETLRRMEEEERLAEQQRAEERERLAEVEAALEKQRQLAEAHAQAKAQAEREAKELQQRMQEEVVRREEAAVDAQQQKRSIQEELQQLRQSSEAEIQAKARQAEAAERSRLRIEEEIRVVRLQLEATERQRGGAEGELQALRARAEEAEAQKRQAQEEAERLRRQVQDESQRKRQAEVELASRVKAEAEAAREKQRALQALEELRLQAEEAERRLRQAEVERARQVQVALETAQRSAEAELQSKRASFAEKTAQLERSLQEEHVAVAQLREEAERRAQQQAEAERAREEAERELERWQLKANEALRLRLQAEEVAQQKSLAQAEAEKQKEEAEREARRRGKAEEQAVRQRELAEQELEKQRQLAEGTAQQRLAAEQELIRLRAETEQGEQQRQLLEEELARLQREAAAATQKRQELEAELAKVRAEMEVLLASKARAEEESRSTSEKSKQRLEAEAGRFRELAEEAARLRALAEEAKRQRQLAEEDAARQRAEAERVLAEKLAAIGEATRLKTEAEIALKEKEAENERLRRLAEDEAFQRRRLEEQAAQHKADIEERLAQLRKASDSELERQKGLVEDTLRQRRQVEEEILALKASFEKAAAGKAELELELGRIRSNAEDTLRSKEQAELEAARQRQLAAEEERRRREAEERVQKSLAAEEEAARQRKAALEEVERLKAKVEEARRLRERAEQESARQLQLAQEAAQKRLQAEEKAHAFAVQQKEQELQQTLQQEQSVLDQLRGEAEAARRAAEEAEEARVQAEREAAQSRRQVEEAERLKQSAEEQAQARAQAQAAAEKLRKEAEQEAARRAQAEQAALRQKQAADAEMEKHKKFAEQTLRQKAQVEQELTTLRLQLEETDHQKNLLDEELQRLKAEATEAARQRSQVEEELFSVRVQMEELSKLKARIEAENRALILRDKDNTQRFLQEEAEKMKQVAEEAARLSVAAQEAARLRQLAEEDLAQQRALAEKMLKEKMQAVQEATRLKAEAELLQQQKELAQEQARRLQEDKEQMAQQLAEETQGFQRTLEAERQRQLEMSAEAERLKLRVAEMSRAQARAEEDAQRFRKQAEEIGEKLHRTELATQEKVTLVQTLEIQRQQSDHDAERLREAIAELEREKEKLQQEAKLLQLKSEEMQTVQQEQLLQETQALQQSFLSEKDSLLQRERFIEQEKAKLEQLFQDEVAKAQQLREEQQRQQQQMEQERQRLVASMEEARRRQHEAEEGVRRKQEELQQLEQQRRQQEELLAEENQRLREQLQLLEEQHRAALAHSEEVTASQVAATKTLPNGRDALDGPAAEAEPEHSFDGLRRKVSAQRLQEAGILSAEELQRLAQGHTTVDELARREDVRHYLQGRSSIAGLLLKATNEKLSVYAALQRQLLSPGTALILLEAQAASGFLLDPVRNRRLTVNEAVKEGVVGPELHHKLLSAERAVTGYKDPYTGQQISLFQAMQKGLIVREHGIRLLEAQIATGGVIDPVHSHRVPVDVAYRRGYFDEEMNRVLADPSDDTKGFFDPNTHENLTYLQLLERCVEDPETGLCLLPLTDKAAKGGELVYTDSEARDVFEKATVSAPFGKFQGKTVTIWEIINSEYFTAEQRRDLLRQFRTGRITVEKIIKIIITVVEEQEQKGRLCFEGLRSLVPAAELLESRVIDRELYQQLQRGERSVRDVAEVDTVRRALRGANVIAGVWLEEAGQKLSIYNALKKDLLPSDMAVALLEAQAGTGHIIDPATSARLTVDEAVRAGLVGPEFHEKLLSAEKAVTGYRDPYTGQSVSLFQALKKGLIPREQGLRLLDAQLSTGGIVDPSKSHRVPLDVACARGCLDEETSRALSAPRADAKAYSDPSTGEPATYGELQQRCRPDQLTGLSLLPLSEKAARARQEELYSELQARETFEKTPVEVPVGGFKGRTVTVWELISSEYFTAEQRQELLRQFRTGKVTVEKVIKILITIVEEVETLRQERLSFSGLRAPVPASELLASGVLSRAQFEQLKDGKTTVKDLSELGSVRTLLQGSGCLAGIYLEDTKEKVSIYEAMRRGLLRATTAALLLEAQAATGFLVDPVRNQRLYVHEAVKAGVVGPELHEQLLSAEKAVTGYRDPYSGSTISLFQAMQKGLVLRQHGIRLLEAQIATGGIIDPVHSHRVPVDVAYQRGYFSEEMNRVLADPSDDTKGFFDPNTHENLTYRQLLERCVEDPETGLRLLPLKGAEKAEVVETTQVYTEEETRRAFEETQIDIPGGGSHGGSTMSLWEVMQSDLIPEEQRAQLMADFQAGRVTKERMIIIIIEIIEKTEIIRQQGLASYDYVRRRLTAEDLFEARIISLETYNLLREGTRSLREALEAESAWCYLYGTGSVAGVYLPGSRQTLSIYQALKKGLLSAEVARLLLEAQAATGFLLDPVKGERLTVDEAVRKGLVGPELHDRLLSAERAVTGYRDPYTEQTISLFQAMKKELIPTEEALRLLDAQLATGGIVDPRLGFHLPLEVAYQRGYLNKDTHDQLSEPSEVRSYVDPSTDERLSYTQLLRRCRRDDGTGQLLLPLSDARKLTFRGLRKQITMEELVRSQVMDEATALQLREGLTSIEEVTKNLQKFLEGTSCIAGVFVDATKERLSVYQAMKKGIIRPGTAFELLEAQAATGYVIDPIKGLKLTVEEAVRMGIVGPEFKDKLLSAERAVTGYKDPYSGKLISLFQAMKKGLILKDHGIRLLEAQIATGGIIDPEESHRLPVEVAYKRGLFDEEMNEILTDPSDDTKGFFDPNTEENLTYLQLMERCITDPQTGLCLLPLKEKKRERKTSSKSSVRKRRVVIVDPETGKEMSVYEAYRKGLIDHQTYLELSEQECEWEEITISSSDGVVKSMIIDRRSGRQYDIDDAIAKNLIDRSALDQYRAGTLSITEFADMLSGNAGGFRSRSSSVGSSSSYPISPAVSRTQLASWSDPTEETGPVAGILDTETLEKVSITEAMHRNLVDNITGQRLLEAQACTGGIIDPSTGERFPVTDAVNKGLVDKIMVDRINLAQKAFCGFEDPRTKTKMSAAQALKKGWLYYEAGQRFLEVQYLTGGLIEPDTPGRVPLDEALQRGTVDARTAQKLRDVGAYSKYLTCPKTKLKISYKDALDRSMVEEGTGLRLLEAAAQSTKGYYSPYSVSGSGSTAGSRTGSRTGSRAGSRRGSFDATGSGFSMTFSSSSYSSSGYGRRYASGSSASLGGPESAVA
Experimental: Following surgery, ex vivo planar images of the resected tumor and adjacent normal tissue (e.g., pancreas and duodenum) were obtained at 28 h post-injection. This timing aligns with surgical resection, allowing immediate imaging of fresh specimens. A white light image was collected for one patient to confirm tumor localization, but these images were not systematically obtained.
For ex vivo images, tumor ROIs were drawn using white light imaging, with the surrounding tissue considered background. […] The activity was calculated using planar data methods, ignoring the self-attenuation of the tissue because of tissue thickness.

CSP in pancreatic tumors [3] = molecular target: T1, CSP in pancreatic tumors; set-up: CSP, typically localized intracellularly in healthy cells, is aberrantly expressed on the surface of cancer cells; from tissue; host or cells: pancreatic tumours of patients, imaged in vivo and as resected specimens; conditions: in vivo, iv, 100 ug
Experimental: as §1
For in vivo images, we generated eight ROIs for each patient, including bladder, heart, left kidney, right kidney, liver, syringe, whole body, and tumor. […] Results were expressed as percent injected dose (%ID). […]

[4] = tested on: CSP (plectin) in murine tumor models; conditions: preclinical SPECT imaging of murine tumor models; cited from earlier work
Description: The CSP-targeting peptide KTLLPTP has been adapted for numerous applications as a targeting ligand for imaging agents. […] Tumor models with higher CSP levels also had correspondingly high tumor uptake of ^99mTc-KTLLPTP. Here we report the results of a phase 0 trial examining a tetrameric version of KTLLPTP labeled with ^111In called PTP-01 (NCT01962909) in patients with resectable p ...

| Substance | blood concentrations, fold higher than in the other two patients [1] | elimination half-life (T1/2) ([1]; iv) [h] | Association rate constant (kon) (CSP) [M⁻¹ s⁻¹] | Internalization half-life (CSP) [h] | Residualization half-life (CSP) [h] | Kd (CSP; read-out: Dissociation constant (KD)) [nM] | tumor-to-background ratio (CSP in pancreatic tumors [2]; all three patients, confirmed by ex vivo planar scintigraphy) | tumor-to-background ratio (CSP in pancreatic tumors [2]; ex vivo planar scintigraphy of resected specimens, 28 h post-injection, mean across patients) | average cumulative retention in tumor (CSP in pancreatic tumors [3]) [%ID] | tumor accumulation, biodistribution and blood clearance [4] |
| --- | --- | --- | --- | --- | --- | --- | --- | --- | --- | --- |
| PTP-01: tetrameric version of KTLLPTP on a branched PEG linker, labeled with ^111In via DOTA; CSP-targeting imaging agent (also: tetramer on branched PEG linker, DOTA chelator labelled with 111In) | 50-70 fold | 5 to 22 | 100000 | 13 | 120 | 90 | exceeding 2 | 2.18 ± 0.14 | 8.90 ± 3.31 |  |
| ^99mTc-KTLLPTP |  |  |  |  |  |  |  |  |  | a tumor accumulation and favorable biodistribution in addition to fast blood clearance |
